Measurements taken from publication PMC4102244, “Molecular mechanism for Rabex-5 GEF activation by Rabaptin-5” (eLife, 2014).

Columns and labels:
[1] = molecular target: Rabex-5-Rabaptin-5C21 (R2) complex (human) (UniProt Q15276); experiment: SAXS; purified R2, R2Δ, R3 and R3Δ complexes at 5 mg/ml in 20 mM Tris–HCl (pH 8.0), 150 mM NaCl, 293 K
[2] = molecular target: Rab5-Rabex-5-Rabaptin-5C21 (R3) complex (human) (UniProt P20339); experiment: as above
[3] = molecular target: the molecule itself; experiment: crystal structure; Rabex-5Δ-Rabaptin-5C21_(2) (R2Δ) complex, 3.10 Å; hanging drop, 16°C, 2.0 M NaH2PO4/K2HPO4 (pH 7.0), 0.05% n-octyl-β-D-galactopyranoside

For “Rabex-5-Rabaptin-5C21 (R2) complex (from UniProt Q15276 552-642)”, which stoichiometry N [1] is on record?
Its stoichiometry N is 2.

Which stoichiometry N [2] does the source give for “Rab5-Rabex-5-Rabaptin-5C21 (R3) complex (from UniProt P20339 15-184; Q15276 552-642)” here?
Its stoichiometry N is 2.

B1: Rabaptin-5 C2-1 domain (residues 552–642) (domain or fragment, human, UniProt Q15276 552-642, looked up)
chain: ETRDQVKKLQLMLRQANDQLEKTMKDKQELEDFIKQSSEDSSHQISALVLRAQASEILLEELQQGLSQAKRDVQEQMAVLMQSREQVSEEL
notes: Rabaptin-5, human, C2-1 domain, residues 552-642; In pET-Duet1 a tag is stated only for the Rabex-5 partner; also called Rabaptin-5C21_(2)
Does B1 bind [3]?
Result: binds
